Test [1] addresses RBD-His (Sino Biological) (SARS-CoV-2) (UniProt P0DTC2). The test can be described thus: BLI steady-state, CR3022 on anti-human IgG Fc tips, RBD-His as analyte.
The target is the same in test [2]. The test can be described thus: BLI (summary of the working examples).

With “neutralizing monoclonal IgG antibody against the SARS-CoV-2 spike glycoprotein (CR3022, antibodies-online)”, the results for the Kd in test [1] and in test [2] were 8.6 nM and 6 nM, respectively.

The Kd is the equilibrium constant for the complex coming apart. Read a low Kd as a tighter complex.

These data come from patent publication US20230242592A1, “IDENTIFICATION OF […] PEPTIDES AND USES THEREOF” (priority 2020, published 2023).
